Here are results for 24 molecules from patent US20150344570A1 (published 2015).

One test has as its target FcγRIIa H (human, UniProt P12318 34-217). In words: SPR Biacore, captured antibody, FcγR analyte; vs GpH7-B3/GpL16-k0 = 100.
The target of test [1] is T1, human FcγRIIb extracellular domain with C-terminal His tag (human, UniProt P31994 43-217).
T1 construct: extracellular domain; also called FcgRIIb; 2b; not shown: His tag attached to the C terminus
T1 sequence (looked up): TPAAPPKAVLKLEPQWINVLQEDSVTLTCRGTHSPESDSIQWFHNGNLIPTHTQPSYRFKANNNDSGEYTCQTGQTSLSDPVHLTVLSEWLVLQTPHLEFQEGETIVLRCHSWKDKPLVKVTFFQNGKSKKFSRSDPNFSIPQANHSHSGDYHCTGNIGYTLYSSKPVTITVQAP
As to the kind of experiment: SPR (Biacore T100), antibody captured on antigen peptide chip, FcγRIIb as analyte; relative binding. The method, then:
Analysis of interaction between objective antibody and the FcγR was carried out using Biacore T100 (GE Healthcare). HBS-EP+ (GE Healthcare) was used as the running buffer, and the measurement temperature was set to 25° C. Chips produced by immobilizing the antigen peptide by the amine coupling method to a Series S Sencor Chip CM5 (GE Healthcare), or alternatively, chips produced by allowing preliminarily biotinylated antigen peptides to interact with and immobilize onto a Series S Sensor Chip SA (certified) (GE Healthcare) were used. Antibodies of interest were captured onto an antigen peptide-immobilized chip, and allowed to interact to each FcγR diluted with running buffer. To regenerate and repeatedly use the chip, the antibodies captured on the chip were washed off by reacting 10 mM glycine-HCl, pH 1.5.
(In general: SPR reads the build-up and loss of mass on a sensor chip optically.)

Chain of FcγRIIa H (P12318 34-217): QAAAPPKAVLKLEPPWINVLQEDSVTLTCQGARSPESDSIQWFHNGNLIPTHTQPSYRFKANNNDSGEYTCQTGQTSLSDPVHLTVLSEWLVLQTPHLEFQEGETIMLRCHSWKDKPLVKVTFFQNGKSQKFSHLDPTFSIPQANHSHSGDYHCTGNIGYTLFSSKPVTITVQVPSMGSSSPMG

B1: GpH7-B3 variant A327_09D/GpL16-k0 (antibody, human IgG1, kappa)
heavy: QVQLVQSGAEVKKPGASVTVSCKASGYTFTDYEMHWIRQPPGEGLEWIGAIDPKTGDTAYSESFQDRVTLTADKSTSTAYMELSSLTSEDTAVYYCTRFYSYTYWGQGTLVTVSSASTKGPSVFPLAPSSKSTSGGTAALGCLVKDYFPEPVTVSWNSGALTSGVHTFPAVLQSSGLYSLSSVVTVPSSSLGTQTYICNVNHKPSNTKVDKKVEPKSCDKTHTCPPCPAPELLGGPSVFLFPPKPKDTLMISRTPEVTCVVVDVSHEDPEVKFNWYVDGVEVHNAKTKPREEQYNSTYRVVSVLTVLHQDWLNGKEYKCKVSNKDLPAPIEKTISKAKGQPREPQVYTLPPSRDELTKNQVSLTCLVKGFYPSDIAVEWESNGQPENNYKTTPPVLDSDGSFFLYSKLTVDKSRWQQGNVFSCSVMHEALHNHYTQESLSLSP
light: DIVMTQSPLSLPVTPGEPASISCQASESLVHSNRNTYLHWYLQKPGQSPQLLIYKVSNRFSGVPDRFSGSGSGTDFTLKISRVEAEDVGVYYCSQNTHVPPTFGQGTKVEIERTVAAPSVFIFPPSDEQLKSGTASVVCLLNNFYPREAKVQWKVDNALQSGNSQESVTEQDSKDSTYSLSSTLTLSKADYEKHKVYACEVTHQGLSSPVTKSFNRGEC
notes: also called Ho Ab A327_09D
B1: in the test with FcγRIIa H, the Ho/Con_2aH is 90.1 % of control.

B2: GpH7-B3 variant I336_18N/GpL16-k0 (antibody, human IgG1, kappa)
heavy: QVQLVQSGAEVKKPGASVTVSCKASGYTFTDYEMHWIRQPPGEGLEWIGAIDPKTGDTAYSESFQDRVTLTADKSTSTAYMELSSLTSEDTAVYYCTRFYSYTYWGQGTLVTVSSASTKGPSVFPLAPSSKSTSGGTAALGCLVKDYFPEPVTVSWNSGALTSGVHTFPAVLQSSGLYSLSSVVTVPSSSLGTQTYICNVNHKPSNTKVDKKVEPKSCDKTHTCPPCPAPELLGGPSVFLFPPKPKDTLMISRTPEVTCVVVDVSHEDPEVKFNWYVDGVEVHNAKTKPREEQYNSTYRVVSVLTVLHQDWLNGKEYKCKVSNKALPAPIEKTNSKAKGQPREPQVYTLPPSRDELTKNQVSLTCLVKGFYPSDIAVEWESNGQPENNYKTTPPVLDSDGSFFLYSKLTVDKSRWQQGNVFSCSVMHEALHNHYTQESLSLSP
light: B1 light
notes: also called Ho Ab I336_18N
As to B2, the Ho/Con_2aH in the test with FcγRIIa H was 94.3 % of control.

B3: GpH7-B3 variant G236_14T/GpL16-k0 (antibody, human IgG1, kappa)
heavy: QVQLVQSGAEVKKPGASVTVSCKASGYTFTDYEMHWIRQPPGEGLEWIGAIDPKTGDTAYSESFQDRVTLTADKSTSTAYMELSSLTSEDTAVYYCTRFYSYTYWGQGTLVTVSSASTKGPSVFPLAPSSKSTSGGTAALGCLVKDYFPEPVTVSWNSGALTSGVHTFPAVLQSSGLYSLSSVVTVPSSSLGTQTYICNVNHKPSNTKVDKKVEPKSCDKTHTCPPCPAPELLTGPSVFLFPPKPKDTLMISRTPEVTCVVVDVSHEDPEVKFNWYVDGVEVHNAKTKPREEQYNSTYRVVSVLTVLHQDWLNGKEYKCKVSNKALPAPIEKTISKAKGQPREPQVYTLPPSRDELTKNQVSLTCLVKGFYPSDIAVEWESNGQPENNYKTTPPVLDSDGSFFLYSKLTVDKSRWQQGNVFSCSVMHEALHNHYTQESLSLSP
light: B1 light
notes: also called Ho Ab G236_14T
With B3, the Ho/Con_2aH in the test with FcγRIIa H is 94.2 % of control.

B4: GpH7-B3 variant G236_04F/GpL16-k0 (antibody, human IgG1, kappa)
heavy: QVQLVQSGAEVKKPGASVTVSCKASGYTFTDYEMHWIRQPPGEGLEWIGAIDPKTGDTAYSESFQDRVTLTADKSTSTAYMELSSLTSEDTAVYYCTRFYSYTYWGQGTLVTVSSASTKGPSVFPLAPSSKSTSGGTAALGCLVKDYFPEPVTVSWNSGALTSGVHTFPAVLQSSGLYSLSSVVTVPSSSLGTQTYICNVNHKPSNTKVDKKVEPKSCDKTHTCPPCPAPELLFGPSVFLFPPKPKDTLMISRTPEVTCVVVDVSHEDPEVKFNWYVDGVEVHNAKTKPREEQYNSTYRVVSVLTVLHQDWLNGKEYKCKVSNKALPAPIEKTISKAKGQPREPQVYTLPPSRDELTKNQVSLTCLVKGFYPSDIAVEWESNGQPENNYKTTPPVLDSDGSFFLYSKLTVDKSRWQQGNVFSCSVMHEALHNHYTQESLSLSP
light: B1 light
notes: also called Ho Ab G236_04F
For B4, the Ho/Con_2aH with FcγRIIa H was 63.2 % of control.

B5: GpH7-B3 variant E333_14T/GpL16-k0 (antibody, human IgG1, kappa)
heavy: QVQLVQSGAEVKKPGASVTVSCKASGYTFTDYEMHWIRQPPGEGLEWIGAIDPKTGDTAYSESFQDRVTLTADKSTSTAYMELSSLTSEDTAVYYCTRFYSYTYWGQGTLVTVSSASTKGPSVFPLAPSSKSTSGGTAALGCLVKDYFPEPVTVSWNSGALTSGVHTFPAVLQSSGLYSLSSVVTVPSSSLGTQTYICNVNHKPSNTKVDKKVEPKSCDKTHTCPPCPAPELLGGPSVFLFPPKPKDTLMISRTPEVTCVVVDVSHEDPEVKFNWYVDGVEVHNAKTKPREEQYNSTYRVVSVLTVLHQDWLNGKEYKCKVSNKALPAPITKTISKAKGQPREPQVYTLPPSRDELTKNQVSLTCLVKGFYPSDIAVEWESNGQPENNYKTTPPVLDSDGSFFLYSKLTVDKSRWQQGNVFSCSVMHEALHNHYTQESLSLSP
light: B1 light
notes: also called Ho Ab E333_14T
For B5, the Ho/Con_2aH with FcγRIIa H is 90.4 % of control.

B6: GpH7-B3 variant E333_13S/GpL16-k0 (antibody, human IgG1, kappa)
heavy: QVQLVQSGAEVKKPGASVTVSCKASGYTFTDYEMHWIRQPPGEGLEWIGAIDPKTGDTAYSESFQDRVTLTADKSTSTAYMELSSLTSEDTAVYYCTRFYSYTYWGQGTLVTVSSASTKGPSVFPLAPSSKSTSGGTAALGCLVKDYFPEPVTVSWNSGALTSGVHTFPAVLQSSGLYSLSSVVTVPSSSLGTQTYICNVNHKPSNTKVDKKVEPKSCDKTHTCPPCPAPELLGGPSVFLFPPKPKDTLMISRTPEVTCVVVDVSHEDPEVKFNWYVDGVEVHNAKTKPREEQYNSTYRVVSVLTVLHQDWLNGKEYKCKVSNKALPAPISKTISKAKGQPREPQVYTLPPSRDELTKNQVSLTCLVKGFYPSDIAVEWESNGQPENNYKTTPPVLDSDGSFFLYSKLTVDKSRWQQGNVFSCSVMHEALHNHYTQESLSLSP
light: B1 light
notes: also called Ho Ab E333_13S
For B6, the Ho/Con_2aH with FcγRIIa H is 94.6 % of control.

B7: GpH7-B3 variant A330_19Q/GpL16-k0 (antibody, human IgG1, kappa)
heavy: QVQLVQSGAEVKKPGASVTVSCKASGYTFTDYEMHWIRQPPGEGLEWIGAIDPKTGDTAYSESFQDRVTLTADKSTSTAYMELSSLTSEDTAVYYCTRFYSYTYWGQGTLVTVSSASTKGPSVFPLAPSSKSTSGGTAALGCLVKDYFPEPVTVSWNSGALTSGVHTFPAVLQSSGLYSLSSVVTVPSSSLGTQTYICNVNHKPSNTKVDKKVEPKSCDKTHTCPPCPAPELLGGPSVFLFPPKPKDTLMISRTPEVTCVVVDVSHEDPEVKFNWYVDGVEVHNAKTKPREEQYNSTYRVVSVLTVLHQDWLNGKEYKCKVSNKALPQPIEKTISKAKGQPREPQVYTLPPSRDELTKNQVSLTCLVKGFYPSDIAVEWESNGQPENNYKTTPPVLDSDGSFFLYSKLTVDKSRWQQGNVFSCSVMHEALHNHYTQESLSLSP
light: B1 light
notes: also called Ho Ab A330_19Q
Regarding B7, the Ho/Con_2aH in the test with FcγRIIa H was 99.2 % of control.

B8: GpH7-B3 variant I336_10E/GpL16-k0 (antibody, human IgG1, kappa)
heavy: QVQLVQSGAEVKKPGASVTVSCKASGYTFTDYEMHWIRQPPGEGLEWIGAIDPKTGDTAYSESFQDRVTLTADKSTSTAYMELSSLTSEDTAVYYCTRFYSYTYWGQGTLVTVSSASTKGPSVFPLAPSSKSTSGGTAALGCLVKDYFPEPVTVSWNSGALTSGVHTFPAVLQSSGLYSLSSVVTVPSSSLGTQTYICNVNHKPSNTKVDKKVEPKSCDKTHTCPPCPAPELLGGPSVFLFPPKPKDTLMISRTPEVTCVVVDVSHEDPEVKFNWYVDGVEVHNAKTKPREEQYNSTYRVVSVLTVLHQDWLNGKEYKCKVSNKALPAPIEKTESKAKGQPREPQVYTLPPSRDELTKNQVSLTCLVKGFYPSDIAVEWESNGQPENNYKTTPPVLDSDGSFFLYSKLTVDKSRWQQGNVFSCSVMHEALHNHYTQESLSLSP
light: B1 light
notes: also called Ho Ab I336_10E
Regarding B8, the Ho/Con_2aH with FcγRIIa H was 93.4 % of control.

B9: GpH7-B3 variant I336_03V/GpL16-k0 (antibody, human IgG1, kappa)
heavy: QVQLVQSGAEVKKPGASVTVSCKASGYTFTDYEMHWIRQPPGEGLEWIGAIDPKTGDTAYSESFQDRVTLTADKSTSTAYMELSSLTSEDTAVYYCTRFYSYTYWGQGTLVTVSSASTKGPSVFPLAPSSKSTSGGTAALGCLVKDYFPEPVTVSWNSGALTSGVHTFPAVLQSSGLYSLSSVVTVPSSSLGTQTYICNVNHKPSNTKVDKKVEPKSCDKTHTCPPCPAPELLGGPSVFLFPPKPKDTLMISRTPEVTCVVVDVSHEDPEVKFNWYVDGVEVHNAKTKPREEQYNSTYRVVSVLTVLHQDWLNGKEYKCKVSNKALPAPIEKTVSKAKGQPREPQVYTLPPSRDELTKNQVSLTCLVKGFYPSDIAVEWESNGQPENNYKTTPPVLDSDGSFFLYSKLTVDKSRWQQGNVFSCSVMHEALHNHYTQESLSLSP
light: B1 light
notes: also called Ho Ab I336_03V
Turning to B9, in the test with FcγRIIa H, the Ho/Con_2aH is 90.4 % of control.

B10: GpH7-B3 variant E333_04F/GpL16-k0 (antibody, human IgG1, kappa)
heavy: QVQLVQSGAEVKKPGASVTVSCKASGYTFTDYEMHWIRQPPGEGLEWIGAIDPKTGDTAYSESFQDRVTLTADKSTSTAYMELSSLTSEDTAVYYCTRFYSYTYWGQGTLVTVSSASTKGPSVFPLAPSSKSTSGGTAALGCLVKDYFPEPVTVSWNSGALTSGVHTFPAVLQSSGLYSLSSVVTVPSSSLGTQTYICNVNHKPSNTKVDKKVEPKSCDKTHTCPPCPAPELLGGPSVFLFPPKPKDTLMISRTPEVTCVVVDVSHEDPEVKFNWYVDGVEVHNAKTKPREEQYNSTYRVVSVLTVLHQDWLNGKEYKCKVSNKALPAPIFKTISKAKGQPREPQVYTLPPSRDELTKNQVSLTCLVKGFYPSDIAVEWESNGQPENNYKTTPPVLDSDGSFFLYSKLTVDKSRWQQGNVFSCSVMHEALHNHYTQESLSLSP
light: B1 light
notes: also called Ho Ab E333_04F
For B10, in the test with FcγRIIa H, the Ho/Con_2aH is 93.6 % of control.

B11: GpH7-B3 variant E333_08L/GpL16-k0 (antibody, human IgG1, kappa)
heavy: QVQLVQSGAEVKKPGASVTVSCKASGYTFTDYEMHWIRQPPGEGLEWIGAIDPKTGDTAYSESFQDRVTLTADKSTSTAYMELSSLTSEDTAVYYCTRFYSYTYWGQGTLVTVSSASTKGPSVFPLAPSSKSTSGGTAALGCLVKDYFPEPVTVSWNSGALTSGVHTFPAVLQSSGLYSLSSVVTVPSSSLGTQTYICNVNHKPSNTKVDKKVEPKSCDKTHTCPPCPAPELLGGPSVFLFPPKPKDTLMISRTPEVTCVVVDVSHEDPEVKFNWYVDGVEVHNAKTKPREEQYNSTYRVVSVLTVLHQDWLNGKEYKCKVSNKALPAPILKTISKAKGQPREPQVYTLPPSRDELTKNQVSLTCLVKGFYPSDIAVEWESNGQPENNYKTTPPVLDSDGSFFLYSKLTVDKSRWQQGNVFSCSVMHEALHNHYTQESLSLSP
light: B1 light
notes: also called Ho Ab E333_08L
Take B11: the Ho/Con_2aH with FcγRIIa H was 96.5 % of control.

B12: GpH7-B3 variant G236_15Y/GpL16-k0 (antibody, human IgG1, kappa)
heavy: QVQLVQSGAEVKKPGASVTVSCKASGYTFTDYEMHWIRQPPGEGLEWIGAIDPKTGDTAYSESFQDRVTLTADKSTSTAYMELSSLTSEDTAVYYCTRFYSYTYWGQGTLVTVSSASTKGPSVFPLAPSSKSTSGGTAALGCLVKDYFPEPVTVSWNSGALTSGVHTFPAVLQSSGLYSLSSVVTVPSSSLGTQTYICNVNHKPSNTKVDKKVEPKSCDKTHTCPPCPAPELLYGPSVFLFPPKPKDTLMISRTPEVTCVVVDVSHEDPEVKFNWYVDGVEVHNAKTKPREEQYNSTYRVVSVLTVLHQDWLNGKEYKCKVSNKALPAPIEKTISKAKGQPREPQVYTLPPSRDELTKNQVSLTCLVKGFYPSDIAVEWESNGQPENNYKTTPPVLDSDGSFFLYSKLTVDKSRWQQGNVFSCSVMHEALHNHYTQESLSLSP
light: B1 light
notes: also called Ho Ab G236_15Y
Consider B12, for which the Ho/Con_2aH in the test with FcγRIIa H is 80.4 % of control.

B13: GpH7-A5/GpH7-B3 variant L328_03V/GpL16-k0 (He Ab) (antibody, human IgG1, kappa)
heavy 1: not shown
heavy 2: not shown
light: B1 light
notes: Anti-glypican-3 IgG1; mutation only in the GpH7-B3-derived H chain; also called L328V heterodimerized antibody
In the case of B13, the He/Con_2b in test [1] is 126 % of control GpH7-A5/GpH7-B3/GpL16-k0 (=100).

B14: GpH7-A5/GpH7-B3 variant L328_19Q/GpL16-k0 (He Ab) (antibody, human IgG1, kappa)
heavy 1: not shown
heavy 2: not shown
light: B1 light
notes: Anti-glypican-3 IgG1; mutation only in the GpH7-B3-derived H chain; also called L328Q heterodimerized antibody
Turning to B14, the He/Con_2b in test [1] is 105 % of control GpH7-A5/GpH7-B3/GpL16-k0 (=100).

B15: GpH7-A5/GpH7-B3 variant S239_08L/GpL16-k0 (He Ab) (antibody, human IgG1, kappa)
heavy 1: not shown
heavy 2: not shown
light: B1 light
notes: Anti-glypican-3 IgG1; mutation only in the GpH7-B3-derived H chain; also called S239L heterodimerized antibody
In the case of B15, in test [1], the He/Con_2b is 140 % of control GpH7-A5/GpH7-B3/GpL16-k0 (=100).

B16: GpH7-A5/GpH7-B3 variant S267_10E/GpL16-k0 (He Ab) (antibody, human IgG1, kappa)
heavy 1: not shown
heavy 2: not shown
light: B1 light
notes: Anti-glypican-3 IgG1; mutation only in the GpH7-B3-derived H chain; also called S267E heterodimerized antibody
As for B16, the He/Con_2b in test [1] was 379 % of control GpH7-A5/GpH7-B3/GpL16-k0 (=100).

B17: GpH7-A5/GpH7-B3 variant K334_19Q/GpL16-k0 (He Ab) (antibody, human IgG1, kappa)
heavy 1: not shown
heavy 2: not shown
light: B1 light
notes: Anti-glypican-3 IgG1; mutation only in the GpH7-B3-derived H chain; also called K334Q heterodimerized antibody
For B17, the He/Con_2b in test [1] is 109 % of control GpH7-A5/GpH7-B3/GpL16-k0 (=100).

B18: GpH7-A5/GpH7-B3 variant K334_18N/GpL16-k0 (He Ab) (antibody, human IgG1, kappa)
heavy 1: not shown
heavy 2: not shown
light: B1 light
notes: Anti-glypican-3 IgG1; mutation only in the GpH7-B3-derived H chain; also called K334N heterodimerized antibody
In the case of B18, the He/Con_2b in test [1] is 115 % of control GpH7-A5/GpH7-B3/GpL16-k0 (=100).

B19: GpH7-A5/GpH7-B3 variant S337_09D/GpL16-k0 (He Ab) (antibody, human IgG1, kappa)
heavy 1: not shown
heavy 2: not shown
light: B1 light
notes: Anti-glypican-3 IgG1; mutation only in the GpH7-B3-derived H chain; also called S337D heterodimerized antibody
Take B19: the He/Con_2b in test [1] was 114 % of control GpH7-A5/GpH7-B3/GpL16-k0 (=100).

B20: GpH7-A5/GpH7-B3 variant K334_15Y/GpL16-k0 (He Ab) (antibody, human IgG1, kappa)
heavy 1: not shown
heavy 2: not shown
light: B1 light
notes: Anti-glypican-3 IgG1; mutation only in the GpH7-B3-derived H chain; also called K334Y heterodimerized antibody
Turning to B20, in test [1], the He/Con_2b was 109 % of control GpH7-A5/GpH7-B3/GpL16-k0 (=100).

B21: GpH7-A5/GpH7-B3 variant S239_18N/GpL16-k0 (He Ab) (antibody, human IgG1, kappa)
heavy 1: not shown
heavy 2: not shown
light: B1 light
notes: Anti-glypican-3 IgG1; mutation only in the GpH7-B3-derived H chain; also called S239N heterodimerized antibody
In the case of B21, the He/Con_2b in test [1] is 119 % of control GpH7-A5/GpH7-B3/GpL16-k0 (=100).

B22: GpH7-A5/GpH7-B3 variant S239_09D/GpL16-k0 (He Ab) (antibody, human IgG1, kappa)
heavy 1: not shown
heavy 2: not shown
light: B1 light
notes: Anti-glypican-3 IgG1; mutation only in the GpH7-B3-derived H chain; also called S239D heterodimerized antibody
Regarding B22, in test [1], the He/Con_2b was 206 % of control GpH7-A5/GpH7-B3/GpL16-k0 (=100).

B23: GpH7-A5/GpH7-B3 variant T335_08L/GpL16-k0 (He Ab) (antibody, human IgG1, kappa)
heavy 1: not shown
heavy 2: not shown
light: B1 light
notes: Anti-glypican-3 IgG1; mutation only in the GpH7-B3-derived H chain; also called T335L heterodimerized antibody
Take B23: the He/Con_2b in test [1] is 104 % of control GpH7-A5/GpH7-B3/GpL16-k0 (=100).

B24: GpH7-A5/GpH7-B3 variant P238_08L/GpL16-k0 (He Ab) (antibody, human IgG1, kappa)
heavy 1: not shown
heavy 2: not shown
light: B1 light
notes: Anti-glypican-3 IgG1; mutation only in the GpH7-B3-derived H chain; also called P238L heterodimerized antibody
Take B24: in test [1], the He/Con_2b was 204 % of control GpH7-A5/GpH7-B3/GpL16-k0 (=100).
